According to PMC5778138, “Interaction of the Morphogenic Protein RodZ with the Bacillus subtilis Min System” (Frontiers in Microbiology, 2017):

Biological target: T1, His-tagged cytosolic part of MinJ, fluorescently labeled (B. subtilis, labeled with the amine-reactive red fluorescent dye NT-647 NHS)
T1 chain: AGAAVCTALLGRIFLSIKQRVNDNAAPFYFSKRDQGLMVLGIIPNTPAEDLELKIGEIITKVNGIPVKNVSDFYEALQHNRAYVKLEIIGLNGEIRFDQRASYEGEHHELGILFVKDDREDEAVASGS
Assay: MST; NT-647-labeled His-cyt-MinJ at 34 μM, cyt-RodZ titrated from 6.7 nM to 221 μM in 16 capillaries; Monolith NT.115; the methods call the Kd preliminary
Conditions: both partners purified

- Kd: 5.1 ± 0.6 µM
B1: His-tagged cytosolic part of RodZ (domain or fragment)
chain: VTELGIRLKEAREEKAMSLDDLQAATKIQKRYLTALEEGNYDIIPGKFYVRAFIKQYAEAVGLDADQLFEEHKKDIPNTYHDDVSEKISGMNLQKEMPKPASKALE
